Measured values reported in patent US20240101700A1 (BIOCON, published 2024).

How the values were obtained:
CD6 [1] = biological target: T1, CD6 (human, UniProt P30203 18-668, tyrosine phosphorylation of the cytoplasmic domain (sites not given)); assay: cell-based or functional assay
T1 construct: whole, on cells; Endogenous CD6 of human PBMCs; also called CD6 receptor; hCD6
T1 sequence (looked up): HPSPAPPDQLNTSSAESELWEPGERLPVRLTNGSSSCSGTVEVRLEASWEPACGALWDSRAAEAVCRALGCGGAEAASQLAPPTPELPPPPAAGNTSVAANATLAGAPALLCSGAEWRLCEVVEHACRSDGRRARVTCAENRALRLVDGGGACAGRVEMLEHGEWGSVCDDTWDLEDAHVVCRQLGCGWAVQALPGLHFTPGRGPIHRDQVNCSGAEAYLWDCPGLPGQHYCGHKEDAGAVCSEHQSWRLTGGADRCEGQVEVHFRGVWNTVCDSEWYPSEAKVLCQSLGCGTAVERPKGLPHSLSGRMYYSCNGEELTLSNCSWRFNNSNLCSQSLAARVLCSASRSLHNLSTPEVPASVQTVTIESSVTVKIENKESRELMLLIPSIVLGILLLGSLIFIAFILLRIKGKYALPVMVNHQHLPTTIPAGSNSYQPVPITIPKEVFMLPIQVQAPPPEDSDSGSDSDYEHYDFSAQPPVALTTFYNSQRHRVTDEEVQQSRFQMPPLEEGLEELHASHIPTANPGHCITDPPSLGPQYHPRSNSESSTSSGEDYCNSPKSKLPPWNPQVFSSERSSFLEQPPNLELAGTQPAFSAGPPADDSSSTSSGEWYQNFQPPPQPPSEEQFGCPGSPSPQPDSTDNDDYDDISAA

CD6 [2] = biological target: T1, CD6; assay: co-immunoprecipitation with CD6 (pulled down by itolizumab) and immunoblot; PBMCs on plate-bound ALCAM against no ALCAM
CD6 [3] = biological target: T1, CD6; assay: immunoprecipitation of CD6 from human PBMC lysates and CD6 immunoblot
Experimental: In these experiments, PBMC were treated with 0.5 ng/ml anti-CD3 antibody (OKT 3) for 24 h in presence or absence of itolizumab or Iso Ab antibody. Cells were harvested and CD6 was immune-precipitated with itolizumab or Iso Ab. 10% total lysate served as input control samples. Both immune precipitated and input control samples were immune blotted and analyzed.

“Fc-ALCAM (from UniProt Q13740 28-527) (Fc fusion)” was tested, and the CD6 tyrosine phosphorylation (CD6 [1]) was > 2.5 fold and the phosphorylation of CD6 associated SHP1 and SHP2 (CD6 [1]) was 3 to 4 fold.

In the case of SLP-76 (from UniProt Q13094 1-533), the fold increase of association with CD6 (CD6 [2]) is reported as 3 to 4 fold.

Work on “Zap70 (from UniProt P43403 1-619) (enzyme)” yielded a fold increase of association with CD6 (CD6 [2]) of 3 to 4 fold.

B1: itolizumab (antibody, human IgG1, kappa, V domains shown)
VH: EVQLVESGGGLVKPGGSLKLSCAASGFKFSRYAMSWVRQAPGKRLEWVATISSGGSYIYYPDSVKGRFTISRDNVKNTLYLQMSSLRSEDTAMYYCARRDYDLDYFDSWGQGTLVTVSS
VL: DIQMTQSPSSLSASVGDRVTITCKASRDIRSYLTWYQQKPGKAPKTLIYYATSLADGVPSRFSGSGSGQDYSLTISSLESDDTATYYCLQHGESPFTLGSGTKLEIKR
notes: Humanized IgG1, produced at Biocon Ltd, used in soluble form; also called T1h; humanized IgG1 isotype anti-CD6 monoclonal antibody
B1: binds (CD6 [3]).
